Assay results published in publication PMC8322138, “BRCA2 binding through a cryptic repeated motif to HSF2BP oligomers does not impact meiotic recombination” (Nature Communications, 2021).

Test system: BRCA2 (Flag-F9)
Assay: Co-immunoprecipitation of GFP-HSF2BP variants with Flag-BRCA2 F9
Assay type: cell-based, human
Settings: transient HEK293T / stable HeLa, anti-GFP beads, immunoblot
Excerpt: Expression constructs for producing point mutation and truncation variants of HS2BP and BRCA2 in human cells were engineered as described before[16] in the PiggyBac vectors by Gibson assembly. For transient expression into HEK293T cells plasmid DNA was transfected using calcium precipitation method or PEI transfection. For stable integration into HeLa cells, PiggyBac expression vectors were co-lipofected together with PiggyBac transposase plasmid (hyPBase[45]) with Lipofectamine 3000 (Thermo Fisher).
Cells were washed twice in ice-cold PBS and lysed in situ in NETT buffer (100 mM NaCl, 50 mM Tris pH 7.5, 5 mM EDTA pH 8.0, 0.5% Triton-X100) supplemented immediately before use with protease inhibitor cocktail (Roche) and 0.4 mg/ml Pefabloc (Roche) (NETT++); 450 µl NETT++ buffer was used per 145 mm dish ES cells, 1 ml for HeLa and HEK293T. After 5–10 min, cells were scraped off and collected in 1.5 ml microcentrifuge tubes; lysis was continued for additional 20–30 min on ice, then mixtures were centrifuged (15 min, 4 °C, 14,000 × g) and the supernatant (input) was added to washed anti-GFP beads (Chromotek). Beads and lysates were incubated 2–4 h at 4 °C while rotating, washed three times in NETT++ buffer and bound proteins were eluted by boiling in 2x Sample buffer. Immunoblotting was performed following standard procedures with the following antibodies: anti-GFP mAb (Roche, #11814460001), anti-GFP pAb (Abcam #ab290 and Invitrogen #A11122), anti-RAD51[46], anti-BRCA2 mAb Ab1 OP-95 (Millipore #OP95), anti-BRCA2 (Abcam #27976), anti-Flag (M2 antibody, Sigma, F3165 and F1804). For quantitative immunoblotting fluorescently labeled secondary antibodies were used: anti-mouse CF680 (Sigma #SAB460199), anti-rabbit CF770 (Sigma #SAB460215); membranes were scanned using Odyssey CLx imaging system (LI-COR).

| Molecule | binding to BRCA2 (co-precipitation) | other results |
| --- | --- | --- |
| N243H: GFP-HSF2BP point mutant (protein, left off: GFP, end not stated, kept, GFP-HSF2BP point mutant) MGEAGAAEEACRHMGTKEEFVKVRKKDLERLTTEVMQIRDFLPRILNGEVLESFQKLKIVEKNLERKEQELEQLKMDCEHFKARLETVQADNIREKKEKLALRQQLNEAKQQLLQQAEYCTEMGAAACTLLWGVSSSEEVVKAILGGDKALKFFSITGQTMESFVKSLDGDVQELDSDESQFVFALAGIVTNVAAIACGREFLVNSSRVLLDTILQLLGDLKPGQCTKLKVLMLMSLYNVSIHLKGLKYISESPGFIPLLWWLLSDPDAEVCLHVLRLVQSVVLEPEVFSKSASEFRSSLPLQRILAMSKSRNPRLQTAAQELLEDLRTLEHNV | totally abolished binding | binding to BRCA2 (co-precipitation) (listed as N243): failed to co-precipitate |
| N239K: GFP-HSF2BP point mutant (protein, left off: GFP, end not stated, kept, GFP-HSF2BP point mutant) MGEAGAAEEACRHMGTKEEFVKVRKKDLERLTTEVMQIRDFLPRILNGEVLESFQKLKIVEKNLERKEQELEQLKMDCEHFKARLETVQADNIREKKEKLALRQQLNEAKQQLLQQAEYCTEMGAAACTLLWGVSSSEEVVKAILGGDKALKFFSITGQTMESFVKSLDGDVQELDSDESQFVFALAGIVTNVAAIACGREFLVNSSRVLLDTILQLLGDLKPGQCTKLKVLMLMSLYKVSINLKGLKYISESPGFIPLLWWLLSDPDAEVCLHVLRLVQSVVLEPEVFSKSASEFRSSLPLQRILAMSKSRNPRLQTAAQELLEDLRTLEHNV | totally abolished binding | binding to BRCA2 (co-precipitation) (listed as N239): failed to co-precipitate |
| E201A: GFP-HSF2BP point mutant (protein, left off: GFP, end not stated, kept, GFP-HSF2BP point mutant) MGEAGAAEEACRHMGTKEEFVKVRKKDLERLTTEVMQIRDFLPRILNGEVLESFQKLKIVEKNLERKEQELEQLKMDCEHFKARLETVQADNIREKKEKLALRQQLNEAKQQLLQQAEYCTEMGAAACTLLWGVSSSEEVVKAILGGDKALKFFSITGQTMESFVKSLDGDVQELDSDESQFVFALAGIVTNVAAIACGRAFLVNSSRVLLDTILQLLGDLKPGQCTKLKVLMLMSLYNVSINLKGLKYISESPGFIPLLWWLLSDPDAEVCLHVLRLVQSVVLEPEVFSKSASEFRSSLPLQRILAMSKSRNPRLQTAAQELLEDLRTLEHNV | did not impact BRCA2 binding | binding to BRCA2 (co-precipitation) (listed as E201): do not decrease binding |
| N192R: GFP-HSF2BP point mutant (protein, left off: GFP, end not stated, kept, GFP-HSF2BP point mutant) MGEAGAAEEACRHMGTKEEFVKVRKKDLERLTTEVMQIRDFLPRILNGEVLESFQKLKIVEKNLERKEQELEQLKMDCEHFKARLETVQADNIREKKEKLALRQQLNEAKQQLLQQAEYCTEMGAAACTLLWGVSSSEEVVKAILGGDKALKFFSITGQTMESFVKSLDGDVQELDSDESQFVFALAGIVTRVAAIACGREFLVNSSRVLLDTILQLLGDLKPGQCTKLKVLMLMSLYNVSINLKGLKYISESPGFIPLLWWLLSDPDAEVCLHVLRLVQSVVLEPEVFSKSASEFRSSLPLQRILAMSKSRNPRLQTAAQELLEDLRTLEHNV | totally abolished binding | binding to BRCA2 (co-precipitation) (listed as N192): failed to co-precipitate |
| R200E: GFP-HSF2BP point mutant (protein, left off: GFP, end not stated, kept, GFP-HSF2BP point mutant) MGEAGAAEEACRHMGTKEEFVKVRKKDLERLTTEVMQIRDFLPRILNGEVLESFQKLKIVEKNLERKEQELEQLKMDCEHFKARLETVQADNIREKKEKLALRQQLNEAKQQLLQQAEYCTEMGAAACTLLWGVSSSEEVVKAILGGDKALKFFSITGQTMESFVKSLDGDVQELDSDESQFVFALAGIVTNVAAIACGEEFLVNSSRVLLDTILQLLGDLKPGQCTKLKVLMLMSLYNVSINLKGLKYISESPGFIPLLWWLLSDPDAEVCLHVLRLVQSVVLEPEVFSKSASEFRSSLPLQRILAMSKSRNPRLQTAAQELLEDLRTLEHNV | totally abolished binding | – |
| G199D: GFP-HSF2BP point mutant (protein, left off: GFP, end not stated, kept, GFP-HSF2BP point mutant) MGEAGAAEEACRHMGTKEEFVKVRKKDLERLTTEVMQIRDFLPRILNGEVLESFQKLKIVEKNLERKEQELEQLKMDCEHFKARLETVQADNIREKKEKLALRQQLNEAKQQLLQQAEYCTEMGAAACTLLWGVSSSEEVVKAILGGDKALKFFSITGQTMESFVKSLDGDVQELDSDESQFVFALAGIVTNVAAIACDREFLVNSSRVLLDTILQLLGDLKPGQCTKLKVLMLMSLYNVSINLKGLKYISESPGFIPLLWWLLSDPDAEVCLHVLRLVQSVVLEPEVFSKSASEFRSSLPLQRILAMSKSRNPRLQTAAQELLEDLRTLEHNV | abolished binding | binding to BRCA2 (co-precipitation) (listed as G199): failed to co-precipitate |
| Y238A: GFP-HSF2BP point mutant (protein, left off: GFP, end not stated, kept, GFP-HSF2BP point mutant) MGEAGAAEEACRHMGTKEEFVKVRKKDLERLTTEVMQIRDFLPRILNGEVLESFQKLKIVEKNLERKEQELEQLKMDCEHFKARLETVQADNIREKKEKLALRQQLNEAKQQLLQQAEYCTEMGAAACTLLWGVSSSEEVVKAILGGDKALKFFSITGQTMESFVKSLDGDVQELDSDESQFVFALAGIVTNVAAIACGREFLVNSSRVLLDTILQLLGDLKPGQCTKLKVLMLMSLANVSINLKGLKYISESPGFIPLLWWLLSDPDAEVCLHVLRLVQSVVLEPEVFSKSASEFRSSLPLQRILAMSKSRNPRLQTAAQELLEDLRTLEHNV | totally abolished binding | binding to BRCA2 (co-precipitation) (listed as Y238): failed to co-precipitate |
| K245T: GFP-HSF2BP point mutant (protein, left off: GFP, end not stated, kept, GFP-HSF2BP point mutant) MGEAGAAEEACRHMGTKEEFVKVRKKDLERLTTEVMQIRDFLPRILNGEVLESFQKLKIVEKNLERKEQELEQLKMDCEHFKARLETVQADNIREKKEKLALRQQLNEAKQQLLQQAEYCTEMGAAACTLLWGVSSSEEVVKAILGGDKALKFFSITGQTMESFVKSLDGDVQELDSDESQFVFALAGIVTNVAAIACGREFLVNSSRVLLDTILQLLGDLKPGQCTKLKVLMLMSLYNVSINLTGLKYISESPGFIPLLWWLLSDPDAEVCLHVLRLVQSVVLEPEVFSKSASEFRSSLPLQRILAMSKSRNPRLQTAAQELLEDLRTLEHNV | did not impact BRCA2 binding | binding to BRCA2 (co-precipitation) (listed as K245): do not decrease binding |
| R200H: GFP-HSF2BP point mutant (protein, left off: GFP, end not stated, kept, GFP-HSF2BP point mutant) MGEAGAAEEACRHMGTKEEFVKVRKKDLERLTTEVMQIRDFLPRILNGEVLESFQKLKIVEKNLERKEQELEQLKMDCEHFKARLETVQADNIREKKEKLALRQQLNEAKQQLLQQAEYCTEMGAAACTLLWGVSSSEEVVKAILGGDKALKFFSITGQTMESFVKSLDGDVQELDSDESQFVFALAGIVTNVAAIACGHEFLVNSSRVLLDTILQLLGDLKPGQCTKLKVLMLMSLYNVSINLKGLKYISESPGFIPLLWWLLSDPDAEVCLHVLRLVQSVVLEPEVFSKSASEFRSSLPLQRILAMSKSRNPRLQTAAQELLEDLRTLEHNV | totally abolished binding | – |
| M235T: GFP-HSF2BP point mutant (protein, left off: GFP, end not stated, kept, GFP-HSF2BP point mutant) MGEAGAAEEACRHMGTKEEFVKVRKKDLERLTTEVMQIRDFLPRILNGEVLESFQKLKIVEKNLERKEQELEQLKMDCEHFKARLETVQADNIREKKEKLALRQQLNEAKQQLLQQAEYCTEMGAAACTLLWGVSSSEEVVKAILGGDKALKFFSITGQTMESFVKSLDGDVQELDSDESQFVFALAGIVTNVAAIACGREFLVNSSRVLLDTILQLLGDLKPGQCTKLKVLMLTSLYNVSINLKGLKYISESPGFIPLLWWLLSDPDAEVCLHVLRLVQSVVLEPEVFSKSASEFRSSLPLQRILAMSKSRNPRLQTAAQELLEDLRTLEHNV | still weakly bound to BRCA2 | – |
